Assay results as given in patent US7056715B1, “GST sequences from soybean and their use in the production of herbicide resistant plants” (Syngenta Limited, priority 1999, dated 2006).

B1: GST 3.3: Recombinant soybean Glutathione-S-transferase 3.3, SEQ ID No. 10; may also be referred to as GST 3.6 (protein)
chain: MAERDLRLLGAWFSPFALRVQIALNLKGLDYEVVEETLNPKSELLLKSNPVHKKIPVFFHGDKVICESAIIVEYIDEVWSNNALSILPQNAYDRANARFWVSYIDDKWLTSLKSVLATEDDEAKKLHFEQAEEVLEKVEEVFNKCSEGKAYFGGDTIGFVDIGFGSFLSFIRVSENMNERKLLDETKYPGLTLWAETFAADPAVKGLLPETEKLVEFAKILQLKWAAAAAAK
modifications: Glycine max
B2: GST 3.1: Recombinant soybean Glutathione-S-transferase 3.1, SEQ ID No. 8 (protein)
chain: MAEQDKVILHGMWASPYAKRVELALNFKGIPYEYVEEDLRNKSDLLLKYNPVHKKVPVLVHNGKAIAESMVILEYIDETWKDGPKLLPSDSYKRAQARFWCHFIQDQLMESTFLVVKTDGEAQQKAIDHVYEKLKVLEDGMKTYLGEGNAIISGVENNFGILDIVFCALYGAYKAHEEVIGLKFIVPEKFPVLFSWLMAIAEVEAVKIATPPHEKTVGILQLFRLSALKSSSATE
modifications: Glycine max
B3: GST 2.6: Recombinant soybean Glutathione-S-transferase 2.6, SEQ ID No. 7 (protein)
chain: MSSSQEEVTLLGVVGSPFLHRVQIALKLKGVEYKYLEDDLNNKSDLLLKYNPVYKMIPVLVHNEKPISESLVIVEYIDDTWKNNPILPSDPYQRALARFWAKFIDDKCVVPAWKSAFMTDEKEKEKAKEELFEALSFLENELKGKFFGGEEFGFVDIAAVLIPIIQEIAGLQLFTSEKFPKLSKWSQDFHNHPVVNEVMPPKDQLFAYFKARAQSFVAKRKN
modifications: Glycine max
B4: GST 3.2: Recombinant soybean Glutathione-S-transferase 3.2, SEQ ID No. 9 (protein)
chain: MAEVKLHGFWYSPYTLRVVWTLKLKDIPYQNIEEDRYNKSLQLLEYNPVYKKTPVLVHNGKPLCESMLIVEYIDEIWAHNSLLPADPYERALARFWVKYADDDMFSAVIAFFLSNNDEEREKSIEKIWEHLRVVENQCFGDQKKFFGGDIINIMDIAFGSIFKILVVAEDILDAKVLEDEKFPHLHSWYNNFKDVAVIKENLPDHEKMVAFAKFIREKRLACT
modifications: Glycine max

How the values were obtained:
Type in all cases: biochemical
[1] = GST activity of purified recombinant protein toward fluorodifen; conditions: recombinant enzyme, ±SE, n=2; for GST activity toward fluorodifen, GSH: thiol GSH; for GST activity toward fluorodifen, hGSH: thiol hGSH
Description: (§1) 4.2 Nde I or Nco I sites were introduced as appropriate into the 5′ end cDNAs encoding glutathione S-transferase and Bam H1 at the 3′ end using PCR. The cDNA was then cloned into pET-24a or pET-24d as appropriate. The resulting plasmids were introduced into E. coli BL21 (DE3) using standard bacterial transformation procedures known to the skilled artisan. Expression and purification of the recombinant GST was performed using anion-exchange chromatography and S-Hexyl-glutathione affinity chromatography according to the methods known in the art (for example, Skipsey et al., 1997). GST activity of the purified recombinant protein toward CDNB, acetochlor, acifluorfen, chlorimuron-ethyl, fluorodifen. fomesafen and metolachlor in the presence of both glutathione and homoglutathione was performed via assays which are described in Andrews et al., 1997 and Skipsey et al., 1997.

[2] = GST activity of purified recombinant protein toward fomesafen; conditions: recombinant enzyme, ±SE, n=2; for GST activity toward fomesafen, GSH: thiol GSH; for GST activity toward fomesafen, hGSH: thiol hGSH
Description: as §1

[3] = GST activity of purified recombinant protein toward metolachlor; conditions: recombinant enzyme, ±SE, n=2; for GST activity toward metolachlor, GSH: thiol GSH; for GST activity toward metolachlor, hGSH: thiol hGSH
Description: as §1

[4] = GST activity of purified recombinant protein toward CDNB; conditions: recombinant enzyme, ±SE, n=2; for GST activity toward CDNB, GSH: thiol GSH; for GST activity toward CDNB, hGSH: thiol hGSH
Description: as §1

[5] = GST activity of purified recombinant protein toward acifluorfen; conditions: recombinant enzyme, ±SE, n=2; for GST activity toward acifluorfen, GSH: thiol GSH; for GST activity toward acifluorfen, hGSH: thiol hGSH
Description: as §1

[6] = GST activity of purified recombinant protein toward acetochlor; conditions: recombinant enzyme, ±SE, n=2; for GST activity toward acetochlor, GSH: thiol GSH; for GST activity toward acetochlor, hGSH: thiol hGSH
Description: as §1

Row | Molecule | GST activity toward fluorodifen, GSH [1] | GST activity toward fluorodifen, hGSH [1] | GST activity toward fomesafen, GSH [2] | GST activity toward fomesafen, hGSH [2] | GST activity toward metolachlor, GSH [3] | GST activity toward metolachlor, hGSH [3] | GST activity toward CDNB, GSH [4] | GST activity toward CDNB, hGSH [4] | GST activity toward acifluorfen, GSH [5] | GST activity toward acifluorfen, hGSH [5] | GST activity toward acetochlor, GSH [6] | GST activity toward acetochlor, hGSH [6]
1 | B1 | 360.5 pkat mg-1 | 602.5 pkat mg-1 | 110 pkat mg-1 | 6250 pkat mg-1 | 312.0 pkat mg-1 | 264.5 pkat mg-1 | 82.9 nkat mg-1 | 189.0 nkat mg-1 | 123.0 pkat mg-1 | 1350 pkat mg-1 | 420.0 pkat mg-1 | 
2 | B2 | 1150 pkat mg-1 | 1350 pkat mg-1 | 213.6 pkat mg-1 | 484.6 pkat mg-1 | 177.5 pkat mg-1 | 67.5 pkat mg-1 | 59.2 nkat mg-1 | 59.2 nkat mg-1 | 152.5 pkat mg-1 | 238.5 pkat mg-1 | 190.5 pkat mg-1 | 11.0 pkat mg-1
3 | B3 |  | 19.3 pkat mg-1 | 27.1 pkat mg-1 | 350.5 pkat mg-1 | 142.0 pkat mg-1 | 95.5 pkat mg-1 | 18.7 nkat mg-1 | 19.0 nkat mg-1 |  | 31.1 pkat mg-1 | 352.5 pkat mg-1 | 391.0 pkat mg-1
4 | B4 | 78.2 pkat mg-1 | 68.0 pkat mg-1 | 21.3 pkat mg-1 | 201.6 pkat mg-1 | 253.0 pkat mg-1 | 191.5 pkat mg-1 | 24.9 nkat mg-1 | 10.3 nkat mg-1 | 7.5 pkat mg-1 | 23.2 pkat mg-1 | 418.0 pkat mg-1 | 143.0 pkat mg-1
